Laboratory results reported in patent publication US20080181901A1.

Molecular target: endogenous Na,K-ATPase of tsA201 cells
Test: cell-based or functional assay

Substance: full-length MONaKA transfected into tsA201 cells (86Rb+ uptake assay)
- decrease in endogenous ouabain-sensitive 86Rb+ uptake into intact tsA201 cells: 19%
